Test results as given in patent publication US20240269235A1 (Gilead, published 2024).

T1: IL-2Rβ (recombinant IL-2 receptor β, R&D Systems Cat #:224-2B-025/CF), biotinylated (UniProt P14784 27-239, limits assumed, biotinylated using sulfo-NHS-LC-LC-Biotin)
T1 construct: Bought reagent; also called IL-2RB; CD122
T1 sequence (looked up): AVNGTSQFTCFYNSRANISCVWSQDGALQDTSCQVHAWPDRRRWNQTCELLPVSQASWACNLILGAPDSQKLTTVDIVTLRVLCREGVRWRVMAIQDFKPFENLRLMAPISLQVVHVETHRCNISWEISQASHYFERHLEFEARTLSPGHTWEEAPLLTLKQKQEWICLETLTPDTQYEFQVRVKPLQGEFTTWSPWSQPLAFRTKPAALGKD

T2: IL-2Rα (recombinant IL-2 receptor α, R&D Systems Cat #: 223-2A/CF), biotinylated (human, UniProt P01589 22-213, limits assumed, biotinylated using sulfo-NHS-LC-LC-Biotin)
T2 construct: Bought reagent; also used here as the IL-2Rα partner of the in-silico analysis of PDB 2B5I (another construct); also called IL-2RA; CD25
T2 sequence (looked up): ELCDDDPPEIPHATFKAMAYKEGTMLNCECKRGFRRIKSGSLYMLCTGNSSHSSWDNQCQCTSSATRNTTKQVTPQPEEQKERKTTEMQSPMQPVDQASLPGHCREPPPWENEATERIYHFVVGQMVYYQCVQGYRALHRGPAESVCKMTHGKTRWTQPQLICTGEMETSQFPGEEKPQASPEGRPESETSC

T3: human IL-2Rα on Treg cells (CD3+, CD4+, CD25hi, FoxP3+) of human PBMC (human, UniProt P01589 22-272)
T3 sequence (looked up): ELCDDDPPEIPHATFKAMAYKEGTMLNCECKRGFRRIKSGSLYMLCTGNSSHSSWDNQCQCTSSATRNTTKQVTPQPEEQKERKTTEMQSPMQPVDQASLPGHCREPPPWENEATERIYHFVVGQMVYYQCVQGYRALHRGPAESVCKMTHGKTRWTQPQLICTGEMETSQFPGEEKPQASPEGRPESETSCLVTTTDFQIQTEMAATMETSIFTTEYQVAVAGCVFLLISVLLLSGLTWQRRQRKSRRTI

T4: trimeric murine IL-2 receptor (IL-2Rα, IL-2Rβ, and IL-2Rγ) on CTLL-2 cells (murine, UniProt P01590 22-268; P16297 27-539; P34902 23-369)
T4 sequence (looked up) 1: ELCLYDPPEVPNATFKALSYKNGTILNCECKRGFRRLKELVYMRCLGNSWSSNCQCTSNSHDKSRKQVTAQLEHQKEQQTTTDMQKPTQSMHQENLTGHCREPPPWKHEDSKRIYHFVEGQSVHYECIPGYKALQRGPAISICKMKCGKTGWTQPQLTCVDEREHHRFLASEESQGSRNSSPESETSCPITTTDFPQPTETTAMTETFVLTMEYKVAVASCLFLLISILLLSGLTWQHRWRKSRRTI
T4 sequence (looked up) 2: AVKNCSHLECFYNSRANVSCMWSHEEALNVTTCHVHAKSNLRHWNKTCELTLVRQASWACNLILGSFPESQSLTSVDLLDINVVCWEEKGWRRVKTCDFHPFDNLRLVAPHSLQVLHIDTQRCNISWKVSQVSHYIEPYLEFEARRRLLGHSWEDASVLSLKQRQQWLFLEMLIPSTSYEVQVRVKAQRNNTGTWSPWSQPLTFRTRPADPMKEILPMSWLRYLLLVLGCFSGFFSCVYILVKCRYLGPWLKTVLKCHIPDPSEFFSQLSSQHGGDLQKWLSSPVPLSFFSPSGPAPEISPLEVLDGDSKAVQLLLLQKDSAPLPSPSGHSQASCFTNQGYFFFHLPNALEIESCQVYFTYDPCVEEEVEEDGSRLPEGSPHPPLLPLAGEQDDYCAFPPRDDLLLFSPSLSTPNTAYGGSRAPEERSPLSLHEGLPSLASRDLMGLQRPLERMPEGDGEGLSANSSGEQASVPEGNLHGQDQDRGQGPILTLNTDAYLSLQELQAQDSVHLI
T4 sequence (looked up) 3: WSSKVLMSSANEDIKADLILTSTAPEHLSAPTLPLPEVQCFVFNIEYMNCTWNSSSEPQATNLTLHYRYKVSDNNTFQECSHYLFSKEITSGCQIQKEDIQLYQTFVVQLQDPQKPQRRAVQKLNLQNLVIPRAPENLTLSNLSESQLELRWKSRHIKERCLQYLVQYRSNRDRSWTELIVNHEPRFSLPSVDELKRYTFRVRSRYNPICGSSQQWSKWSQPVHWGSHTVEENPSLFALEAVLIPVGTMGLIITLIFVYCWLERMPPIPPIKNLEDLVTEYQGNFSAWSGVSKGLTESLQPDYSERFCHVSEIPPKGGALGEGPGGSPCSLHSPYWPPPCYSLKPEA


Tests used:
[1] = biological target: T1, IL-2Rβ (recombinant IL-2 receptor β, …); assay: SPR (Biacore), C1 or CM5 chip, biotinylated receptor on neutravidin
[2] = biological target: T2, IL-2Rα (recombinant IL-2 receptor α, …); assay: as above
[3] = biological target: T5, IL-2Rβγ heterodimer, custom biotinylated Fc fusion protein (human IL-2Rβ 27-240-Fc-FLAG / human IL-2Rγ … (human, site-specific biotinylation at the AviTag)); assay: as above
T5 construct: Extracellular regions fused to IgG1 knob-in-hole Fc subunits with tags; also called IL-2 receptor βγ heterodimer; Fc-IL-2Rβγ

[4] = biological target: T3, human IL-2Rα on Treg cells (CD3+, CD4+, …); assay: cell-based or functional assay
[5] = biological target: T4, trimeric murine IL-2 receptor (IL-2Rα, …); assay: cell-based or functional assay
[6] = biological target: T4, trimeric murine IL-2 receptor (IL-2Rα, …); assay: cell-based or functional assay; remark: listed apart in the source

T5 sequence (chain, as listed by the source limits assumed): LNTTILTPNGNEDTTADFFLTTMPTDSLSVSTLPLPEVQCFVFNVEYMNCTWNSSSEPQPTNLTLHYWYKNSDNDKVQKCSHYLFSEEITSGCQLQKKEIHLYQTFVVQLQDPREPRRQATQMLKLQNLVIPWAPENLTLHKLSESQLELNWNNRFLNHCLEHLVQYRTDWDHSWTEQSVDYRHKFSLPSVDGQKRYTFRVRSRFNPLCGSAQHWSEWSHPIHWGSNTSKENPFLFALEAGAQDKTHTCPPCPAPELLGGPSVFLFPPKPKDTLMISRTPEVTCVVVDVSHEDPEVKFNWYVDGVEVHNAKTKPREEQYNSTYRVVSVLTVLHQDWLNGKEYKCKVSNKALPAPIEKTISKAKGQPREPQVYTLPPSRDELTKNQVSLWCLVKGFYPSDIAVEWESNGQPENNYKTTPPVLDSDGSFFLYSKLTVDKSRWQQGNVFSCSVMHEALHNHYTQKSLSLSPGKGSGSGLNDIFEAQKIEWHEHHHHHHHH

Row | Binder | Kd [1] [nM] | Kd [2] [nM] | Kd [3] [nM] | Treg EC50, STAT5 activation (PBMC STAT5 assay) [4] [nM] | STAT5 activation of CTLL-2 cells, EC50 [5] [nM] | pSTAT5 EC50, STAT5 activation of CTLL-2 cells [6] [nM]
1 | Fc-IL-2v heterodimer 89.46 (hIL-2v_Δ1-5_E61A_C125S) (Fc fusion, hIgG4 knob-in-hole Fc heterodimer, one IL-2v on the knob chain) chain 1: ESKYGPPCPPCPAPEAAGGPSVFLFPPKPKDTLMISRTPEVTCVVVDVSQEDPEVQFNWYVDGVEVHNAKTKPREEQFNSTYRVVSVLTVLHQDWLNGKEYKCKVSNKGLPSSIEKTISKAKGQPREPQVYTLPPSQEEMTKNQVSLWCLVKGFYPSDIAVEWESNGQPENNYKTTPPVLDSDGSFFLYSRLTVDKSRWQEGNVFSCSVMHEALHNHYTQKSLSLSLGGGGGSGGGGSGGGGSGGGGSSTKKTQLQLEHLLLDLQMILNGINNYKNPKLTRMLTFKFYMPKKATELKHLQCLEAELKPLEEVLNLAQSKNFHLRPRDLISNINVIVLELKGSETTFMCEYADETATIVEFLNRWITFSQSIISTLT chain 2: ESKYGPPCPPCPAPEAAGGPSVFLFPPKPKDTLMISRTPEVTCVVVDVSQEDPEVQFNWYVDGVEVHNAKTKPREEQFNSTYRVVSVLTVLHQDWLNGKEYKCKVSNKGLPSSIEKTISKAKGQPREPQVYTLPPSQEEMTKNQVSLSCAVKGFYPSDIAVEWESNGQPENNYKTTPPVLDSDGSFFLVSRLTVDKSRWQEGNVFSCSVMHEALHNRFTQKSLSLSLGK | 8800 | 419 | 0.065 | 0.04 | 0.02 | –
2 | Fc-IL-2v heterodimer 90.46 (hIL-2v_Δ1-5_E62A_C125S) (Fc fusion, hIgG4 knob-in-hole Fc heterodimer, one IL-2v on the knob chain) chain 1: ESKYGPPCPPCPAPEAAGGPSVFLFPPKPKDTLMISRTPEVTCVVVDVSQEDPEVQFNWYVDGVEVHNAKTKPREEQFNSTYRVVSVLTVLHQDWLNGKEYKCKVSNKGLPSSIEKTISKAKGQPREPQVYTLPPSQEEMTKNQVSLWCLVKGFYPSDIAVEWESNGQPENNYKTTPPVLDSDGSFFLYSRLTVDKSRWQEGNVFSCSVMHEALHNHYTQKSLSLSLGGGGGSGGGGSGGGGSGGGGSSTKKTQLQLEHLLLDLQMILNGINNYKNPKLTRMLTFKFYMPKKATELKHLQCLEEALKPLEEVLNLAQSKNFHLRPRDLISNINVIVLELKGSETTFMCEYADETATIVEFLNRWITFSQSIISTLT chain 2: ESKYGPPCPPCPAPEAAGGPSVFLFPPKPKDTLMISRTPEVTCVVVDVSQEDPEVQFNWYVDGVEVHNAKTKPREEQFNSTYRVVSVLTVLHQDWLNGKEYKCKVSNKGLPSSIEKTISKAKGQPREPQVYTLPPSQEEMTKNQVSLSCAVKGFYPSDIAVEWESNGQPENNYKTTPPVLDSDGSFFLVSRLTVDKSRWQEGNVFSCSVMHEALHNRFTQKSLSLSLGK | 8100 | 2400 | 0.152 | 0.08 | 2 | –
3 | mouse surrogate Fc-IL-2v heterodimer 169.250 (IL2v_F56A_Y59G_E76A_C140A) (Fc fusion) chain 1: GPTIKPCPPCKCPAPNAAGGPSVFIFPPKIKDVLMISLSPIVTCVVVDVSEDDPDVQISWFVNNVEVHTAQTQTHREDYNSTLRVVSALPIQHQDWMSGKEFKCKVNNKDLGAPIERTISKPKGSVRAPQVYVLPPPEEEMTKKQVTLWCMVTDFMPEDIYVEWTNNGKTELNYKNTEPVLDSDGSYFMYSKLRVEKKNWVERNSYSCSVVHEGLHNHHTTKSFSRTPGGGGGSGGGGSGGGGSGGGGSQQQHLEQLLMDLQELLSRMENYRNLKLPRMLTAKFGLPKQATELKDLQCLEDALGPLRHVLDLTQSKSFQLEDAENFISNIRVTVVKLKGSDNTFECQFDDESATVVDFLRRWIAFAQSIISTSPQ chain 2: GPTIKPCPPCKCPAPNAAGGPSVFIFPPKIKDVLMISLSPIVTCVVVDVSEDDPDVQISWFVNNVEVHTAQTQTHREDYNSTLRVVSALPIQHQDWMSGKEFKCKVNNKDLGAPIERTISKPKGSVRAPQVYVLPPPEEEMTKKQVTLSCAVTDFMPEDIYVEWTNNGKTELNYKNTEPVLDSDGSYFMVSKLRVEKKNWVERNSYSCSVVHEGLHNHHTTKSFSRTPGK | – | – | – | – | – | 51.4
4 | mouse surrogate Fc-IL-2v heterodimer 170.250 (IL2v_R52G_E76A_C140A) (Fc fusion) chain 1: GPTIKPCPPCKCPAPNAAGGPSVFIFPPKIKDVLMISLSPIVTCVVVDVSEDDPDVQISWFVNNVEVHTAQTQTHREDYNSTLRVVSALPIQHQDWMSGKEFKCKVNNKDLGAPIERTISKPKGSVRAPQVYVLPPPEEEMTKKQVTLWCMVTDFMPEDIYVEWTNNGKTELNYKNTEPVLDSDGSYFMYSKLRVEKKNWVERNSYSCSVVHEGLHNHHTTKSFSRTPGGGGGSGGGGSGGGGSGGGGSQQQHLEQLLMDLQELLSRMENYRNLKLPGMLTFKFYLPKQATELKDLQCLEDALGPLRHVLDLTQSKSFQLEDAENFISNIRVTVVKLKGSDNTFECQFDDESATVVDFLRRWIAFAQSIISTSPQ chain 2: GPTIKPCPPCKCPAPNAAGGPSVFIFPPKIKDVLMISLSPIVTCVVVDVSEDDPDVQISWFVNNVEVHTAQTQTHREDYNSTLRVVSALPIQHQDWMSGKEFKCKVNNKDLGAPIERTISKPKGSVRAPQVYVLPPPEEEMTKKQVTLSCAVTDFMPEDIYVEWTNNGKTELNYKNTEPVLDSDGSYFMVSKLRVEKKNWVERNSYSCSVVHEGLHNHHTTKSFSRTPGK | – | – | – | – | – | 9.6
